# Patent publication US20190077860A1 (EISAI R AND D MANAGEMENT, published 2019)
# T1: human EphA6 extracellular region-SEAP-His protein (human, UniProt Q9UF33 23-550)
# T1 construct: extracellular domain; also called hEphA6-SEAP-His
# T1 sequence (looked up): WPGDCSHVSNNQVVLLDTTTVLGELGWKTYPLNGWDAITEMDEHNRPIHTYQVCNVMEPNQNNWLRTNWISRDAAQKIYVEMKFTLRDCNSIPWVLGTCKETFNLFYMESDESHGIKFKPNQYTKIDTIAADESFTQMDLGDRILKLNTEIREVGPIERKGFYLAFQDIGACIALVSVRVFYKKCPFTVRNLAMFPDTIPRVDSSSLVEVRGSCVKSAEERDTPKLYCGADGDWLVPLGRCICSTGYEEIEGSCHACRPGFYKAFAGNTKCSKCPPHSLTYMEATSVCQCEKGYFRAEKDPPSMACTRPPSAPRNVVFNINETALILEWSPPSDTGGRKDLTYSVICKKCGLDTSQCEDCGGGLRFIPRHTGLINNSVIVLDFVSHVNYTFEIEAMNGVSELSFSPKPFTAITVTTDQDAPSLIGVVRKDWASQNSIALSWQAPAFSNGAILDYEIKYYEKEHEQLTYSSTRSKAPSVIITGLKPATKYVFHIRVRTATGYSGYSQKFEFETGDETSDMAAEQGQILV
# T2: human EphB1 extracellular region-SEAP-His protein (human, UniProt P54762 18-540)
# T2 construct: extracellular domain; also called hEphB1-SEAP-His
# T2 sequence (looked up): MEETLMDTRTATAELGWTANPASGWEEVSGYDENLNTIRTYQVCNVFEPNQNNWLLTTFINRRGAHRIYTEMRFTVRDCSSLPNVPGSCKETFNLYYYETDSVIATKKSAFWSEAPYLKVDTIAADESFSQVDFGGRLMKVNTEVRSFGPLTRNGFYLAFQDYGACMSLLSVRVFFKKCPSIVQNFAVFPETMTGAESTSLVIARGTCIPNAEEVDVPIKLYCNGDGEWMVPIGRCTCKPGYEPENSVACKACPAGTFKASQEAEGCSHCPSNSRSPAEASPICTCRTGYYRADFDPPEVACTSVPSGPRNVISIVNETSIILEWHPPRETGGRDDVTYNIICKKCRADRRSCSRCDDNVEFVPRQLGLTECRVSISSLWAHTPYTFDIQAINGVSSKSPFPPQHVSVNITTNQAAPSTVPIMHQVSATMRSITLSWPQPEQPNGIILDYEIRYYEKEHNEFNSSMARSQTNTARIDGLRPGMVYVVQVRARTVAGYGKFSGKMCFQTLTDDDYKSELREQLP
# T3: human EphB3 extracellular region-SEAP-His protein (human, UniProt P54753 34-559)
# T3 construct: extracellular domain; also called hEphB3-SEAP-His
# T3 sequence (looked up): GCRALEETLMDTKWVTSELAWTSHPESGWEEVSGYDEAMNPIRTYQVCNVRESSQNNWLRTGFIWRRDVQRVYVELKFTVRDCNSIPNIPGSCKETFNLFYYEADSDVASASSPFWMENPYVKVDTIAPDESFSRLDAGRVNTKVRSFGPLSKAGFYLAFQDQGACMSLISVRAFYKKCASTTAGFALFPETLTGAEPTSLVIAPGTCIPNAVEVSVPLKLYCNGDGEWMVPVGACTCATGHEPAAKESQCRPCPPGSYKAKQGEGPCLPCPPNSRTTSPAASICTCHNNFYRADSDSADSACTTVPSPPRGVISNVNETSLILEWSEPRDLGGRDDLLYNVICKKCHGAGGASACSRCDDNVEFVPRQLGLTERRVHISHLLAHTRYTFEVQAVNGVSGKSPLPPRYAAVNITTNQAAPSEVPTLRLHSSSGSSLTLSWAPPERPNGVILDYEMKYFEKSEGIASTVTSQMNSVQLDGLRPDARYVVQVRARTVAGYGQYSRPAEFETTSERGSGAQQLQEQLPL
# T4: human EphB4 extracellular region-SEAP-His protein (human, UniProt P54760 16-539)
# T4 construct: extracellular domain; also called hEphB4-SEAP-His
# T4 sequence (looked up): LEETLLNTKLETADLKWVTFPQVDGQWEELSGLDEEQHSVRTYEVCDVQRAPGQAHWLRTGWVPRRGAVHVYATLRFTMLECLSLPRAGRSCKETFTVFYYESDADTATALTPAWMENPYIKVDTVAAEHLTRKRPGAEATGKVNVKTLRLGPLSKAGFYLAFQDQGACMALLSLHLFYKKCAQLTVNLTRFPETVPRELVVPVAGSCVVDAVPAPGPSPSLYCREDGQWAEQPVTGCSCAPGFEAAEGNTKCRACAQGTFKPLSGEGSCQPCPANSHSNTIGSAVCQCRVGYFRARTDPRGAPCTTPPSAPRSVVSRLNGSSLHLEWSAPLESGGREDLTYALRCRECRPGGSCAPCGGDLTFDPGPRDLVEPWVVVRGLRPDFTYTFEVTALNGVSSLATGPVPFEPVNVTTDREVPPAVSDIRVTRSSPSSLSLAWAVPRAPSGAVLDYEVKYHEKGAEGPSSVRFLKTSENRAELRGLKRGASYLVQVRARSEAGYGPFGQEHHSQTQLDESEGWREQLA
# Legend:
# Experiment in all cases: ELISA
# [1] = target: T5, human EphA2 extracellular region-SEAP-His protein (human, UniProt P29317 24-537)
# T5 construct: extracellular domain; also called hEphA2-SEAP-His
# [2] = target: T1, human EphA6 extracellular …
# [3] = target: T2, human EphB1 extracellular …
# [4] = target: T3, human EphB3 extracellular …
# [5] = target: T4, human EphB4 extracellular …
# [6] = target: T6, human EphA4 extracellular region-SEAP-His protein (human, UniProt P54764 20-547)
# T6 construct: also called hEphA4-SEAP-His
# T6 sequence (P54764 20-547): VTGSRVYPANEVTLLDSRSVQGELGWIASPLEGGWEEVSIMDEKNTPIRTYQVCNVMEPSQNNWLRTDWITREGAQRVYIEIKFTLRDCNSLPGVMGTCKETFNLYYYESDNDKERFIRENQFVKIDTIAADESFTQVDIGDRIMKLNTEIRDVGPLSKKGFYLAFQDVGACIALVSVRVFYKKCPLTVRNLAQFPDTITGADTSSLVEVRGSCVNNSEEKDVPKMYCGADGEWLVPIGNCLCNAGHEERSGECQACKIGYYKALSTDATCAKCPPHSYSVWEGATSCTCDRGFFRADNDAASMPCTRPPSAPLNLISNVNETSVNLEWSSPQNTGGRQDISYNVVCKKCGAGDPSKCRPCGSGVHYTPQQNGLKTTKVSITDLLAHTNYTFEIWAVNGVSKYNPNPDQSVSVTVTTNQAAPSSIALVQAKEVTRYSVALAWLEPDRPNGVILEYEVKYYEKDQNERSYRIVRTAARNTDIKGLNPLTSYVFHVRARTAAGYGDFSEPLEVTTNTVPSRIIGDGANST
# T5 sequence (P29317 24-537): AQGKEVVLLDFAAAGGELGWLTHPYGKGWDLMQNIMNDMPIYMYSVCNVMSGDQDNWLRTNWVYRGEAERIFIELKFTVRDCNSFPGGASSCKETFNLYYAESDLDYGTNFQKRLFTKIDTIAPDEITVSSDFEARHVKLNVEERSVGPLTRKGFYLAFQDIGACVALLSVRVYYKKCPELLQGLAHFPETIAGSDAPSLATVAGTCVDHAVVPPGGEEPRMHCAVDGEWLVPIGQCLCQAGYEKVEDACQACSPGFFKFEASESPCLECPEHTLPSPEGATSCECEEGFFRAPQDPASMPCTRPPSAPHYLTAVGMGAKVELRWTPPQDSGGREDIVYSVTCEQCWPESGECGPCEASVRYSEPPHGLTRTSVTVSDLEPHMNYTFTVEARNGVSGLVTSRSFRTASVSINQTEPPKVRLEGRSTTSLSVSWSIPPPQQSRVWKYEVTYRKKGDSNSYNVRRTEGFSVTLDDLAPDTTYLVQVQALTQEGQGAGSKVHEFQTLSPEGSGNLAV
Binder,A450 as % of hEphA4-SEAP-His [1],A450 as % of hEphA4-SEAP-His [2],A450 as % of hEphA4-SEAP-His [3],A450 as % of hEphA4-SEAP-His [4],A450 as % of hEphA4-SEAP-His [5],A450 as % of hEphA4-SEAP-His [6]
"humanized antibody No. 77 (antibody, human IgG1, kappa, human Ig kappa; also called L1-4/HK1) heavy: QVQLVQSGSELKKPGASVKVSCKASGYTFTDYSMHWVRQAPGQGLEWMGWINTETGEPTYADDFKGRFVFSLDTSVSTAYLQISSLKAEDTAVYYCARIPLYYYGSRYWYFDVWGQGTTVTVSSASTKGPSVFPLAPSSKSTSGGTAALGCLVKDYFPEPVTVSWNSGALTSGVHTFPAVLQSSGLYSLSSVVTVPSSSLGTQTYICNVNHKPSNTKVDKRVEPKSCDKTHTCPPCPAPPAAAPSVFLFPPKPKDTLMISRTPEVTCVVVDVSHEDPEVQFNWYVDGVEVHNAKTKPREEQFNSTFRVVSVLTVVHQDWLNGKEYKCKVSNKGLPAPIEKTISKTKGQPREPQVYTLPPSREEMTKNQVSLTCLVKGFYPSDIAVEWESNGQPENNYKTTPPMLDSDGSFFLYSKLTVDKSRWQQGNVFSCSVMHEALHNHYTQKSLSLSPG light: DIQMTQSPSSLSASVGDRVTITCRASENIYRNLAWYQQKPGKAPKLLVYAATNLADGVPSRFSGSGSGTDYTLTISSLQPEDFATYYCQHFWGTPWTFGQGTKVEIKRTVAAPSVFIFPPSDEQLKSGTASVVCLLNNFYPREAKVQWKVDNALQSGNSQESVTEQDSKDSTYSLSSTLTLSKADYEKHKVYACEVTHQGLSSPVTKSFNRGEC",4.5%,6%,4.6%,4.6%,4.5%,100%
"humanized antibody No. 78 (antibody, human IgG1, kappa, human Ig kappa; also called L1-4/HK2) heavy: QVQLVQSGSELKKPGASVKVSCKASGYTFTDYSMHWVRQAPGQGLKWMGWINTETGEPTYADDFKGRFVFSLDTSVSTAYLQISSLKAEDTAVYYCARIPLYYYGSRYWYFDVWGQGTTVTVSSASTKGPSVFPLAPSSKSTSGGTAALGCLVKDYFPEPVTVSWNSGALTSGVHTFPAVLQSSGLYSLSSVVTVPSSSLGTQTYICNVNHKPSNTKVDKRVEPKSCDKTHTCPPCPAPPAAAPSVFLFPPKPKDTLMISRTPEVTCVVVDVSHEDPEVQFNWYVDGVEVHNAKTKPREEQFNSTFRVVSVLTVVHQDWLNGKEYKCKVSNKGLPAPIEKTISKTKGQPREPQVYTLPPSREEMTKNQVSLTCLVKGFYPSDIAVEWESNGQPENNYKTTPPMLDSDGSFFLYSKLTVDKSRWQQGNVFSCSVMHEALHNHYTQKSLSLSPG light: DIQMTQSPSSLSASVGDRVTITCRASENIYRNLAWYQQKPGKAPKLLVYAATNLADGVPSRFSGSGSGTDYTLTISSLQPEDFATYYCQHFWGTPWTFGQGTKVEIKRTVAAPSVFIFPPSDEQLKSGTASVVCLLNNFYPREAKVQWKVDNALQSGNSQESVTEQDSKDSTYSLSSTLTLSKADYEKHKVYACEVTHQGLSSPVTKSFNRGEC",4.9%,10%,5%,5.2%,5.1%,100%
"humanized antibody No. 81 (antibody, human IgG1, kappa, human Ig kappa; also called L1-5/HA1) heavy: QVQLVQSGSELKKPGASVKVSCKASGYTFTDYSMHWVRQAPGQGLEWMGWINTETGEPTYAQGFTGRFVFSLDTSVSTAYLQISSLKAEDTAVYYCARIPLYYYGSRYWYFDVWGQGTTVTVSSASTKGPSVFPLAPSSKSTSGGTAALGCLVKDYFPEPVTVSWNSGALTSGVHTFPAVLQSSGLYSLSSVVTVPSSSLGTQTYICNVNHKPSNTKVDKRVEPKSCDKTHTCPPCPAPPAAAPSVFLFPPKPKDTLMISRTPEVTCVVVDVSHEDPEVQFNWYVDGVEVHNAKTKPREEQFNSTFRVVSVLTVVHQDWLNGKEYKCKVSNKGLPAPIEKTISKTKGQPREPQVYTLPPSREEMTKNQVSLTCLVKGFYPSDIAVEWESNGQPENNYKTTPPMLDSDGSFFLYSKLTVDKSRWQQGNVFSCSVMHEALHNHYTQKSLSLSPG light: DIQMTQSPSSLSASVGDRVTITCRASENIYRNLAWYQQKPGKAPKLLLYAATNLADGVPSRFSGSGSGTDYTLTISSLQSEDFATYYCQHFWGTPWTFGQGTKVEIKRTVAAPSVFIFPPSDEQLKSGTASVVCLLNNFYPREAKVQWKVDNALQSGNSQESVTEQDSKDSTYSLSSTLTLSKADYEKHKVYACEVTHQGLSSPVTKSFNRGEC",4.8%,8.8%,4.9%,4.9%,5%,100%
"humanized antibody No. 82 (antibody, human IgG1, kappa, human Ig kappa; also called L1-5/HA2) heavy: QVQLVQSGSELKKPGASVKVSCKASGYTFTDYSMHWVRQAPGQGLKWMGWINTETGEPTYAQGFTGRFVFSLDTSVSTAYLQISSLKAEDTAVYYCARIPLYYYGSRYWYFDVWGQGTTVTVSSASTKGPSVFPLAPSSKSTSGGTAALGCLVKDYFPEPVTVSWNSGALTSGVHTFPAVLQSSGLYSLSSVVTVPSSSLGTQTYICNVNHKPSNTKVDKRVEPKSCDKTHTCPPCPAPPAAAPSVFLFPPKPKDTLMISRTPEVTCVVVDVSHEDPEVQFNWYVDGVEVHNAKTKPREEQFNSTFRVVSVLTVVHQDWLNGKEYKCKVSNKGLPAPIEKTISKTKGQPREPQVYTLPPSREEMTKNQVSLTCLVKGFYPSDIAVEWESNGQPENNYKTTPPMLDSDGSFFLYSKLTVDKSRWQQGNVFSCSVMHEALHNHYTQKSLSLSPG light: DIQMTQSPSSLSASVGDRVTITCRASENIYRNLAWYQQKPGKAPKLLLYAATNLADGVPSRFSGSGSGTDYTLTISSLQSEDFATYYCQHFWGTPWTFGQGTKVEIKRTVAAPSVFIFPPSDEQLKSGTASVVCLLNNFYPREAKVQWKVDNALQSGNSQESVTEQDSKDSTYSLSSTLTLSKADYEKHKVYACEVTHQGLSSPVTKSFNRGEC",5.4%,8.7%,5.4%,5.6%,5.7%,100%
